Laboratory results: publication PMC12145424, “Structural insights into tRNA recognition of the human FTSJ1-THADA complex” (Communications Biology, 2025)

Target: T1, Human THADA (FLAG- and streptavidin-binding-sequence-tagged, co-expressed with FTSJ1) (human, UniProt Q6YHU6 1-1953)
T1 construct: THADA, human; gene PCR-amplified and cloned into a modified pcDNA3.4 vector; no TEV cleavage step is described; also called Trm732 (yeast name); not shown: FLAG, N-terminal, kept
Experiment: SEC; FTSJ1 and THADA co-expressed in HEK293F, purified on anti-FLAG beads, then HiLoad 16/600 Superdex 200pg in 20 mM Tris-HCl pH 7.5, 150 mM NaCl, 2 mM DTT; fractions analysed by SDS-PAGE
Settings: both partners purified

T1 sequence (Q6YHU6 whole entry): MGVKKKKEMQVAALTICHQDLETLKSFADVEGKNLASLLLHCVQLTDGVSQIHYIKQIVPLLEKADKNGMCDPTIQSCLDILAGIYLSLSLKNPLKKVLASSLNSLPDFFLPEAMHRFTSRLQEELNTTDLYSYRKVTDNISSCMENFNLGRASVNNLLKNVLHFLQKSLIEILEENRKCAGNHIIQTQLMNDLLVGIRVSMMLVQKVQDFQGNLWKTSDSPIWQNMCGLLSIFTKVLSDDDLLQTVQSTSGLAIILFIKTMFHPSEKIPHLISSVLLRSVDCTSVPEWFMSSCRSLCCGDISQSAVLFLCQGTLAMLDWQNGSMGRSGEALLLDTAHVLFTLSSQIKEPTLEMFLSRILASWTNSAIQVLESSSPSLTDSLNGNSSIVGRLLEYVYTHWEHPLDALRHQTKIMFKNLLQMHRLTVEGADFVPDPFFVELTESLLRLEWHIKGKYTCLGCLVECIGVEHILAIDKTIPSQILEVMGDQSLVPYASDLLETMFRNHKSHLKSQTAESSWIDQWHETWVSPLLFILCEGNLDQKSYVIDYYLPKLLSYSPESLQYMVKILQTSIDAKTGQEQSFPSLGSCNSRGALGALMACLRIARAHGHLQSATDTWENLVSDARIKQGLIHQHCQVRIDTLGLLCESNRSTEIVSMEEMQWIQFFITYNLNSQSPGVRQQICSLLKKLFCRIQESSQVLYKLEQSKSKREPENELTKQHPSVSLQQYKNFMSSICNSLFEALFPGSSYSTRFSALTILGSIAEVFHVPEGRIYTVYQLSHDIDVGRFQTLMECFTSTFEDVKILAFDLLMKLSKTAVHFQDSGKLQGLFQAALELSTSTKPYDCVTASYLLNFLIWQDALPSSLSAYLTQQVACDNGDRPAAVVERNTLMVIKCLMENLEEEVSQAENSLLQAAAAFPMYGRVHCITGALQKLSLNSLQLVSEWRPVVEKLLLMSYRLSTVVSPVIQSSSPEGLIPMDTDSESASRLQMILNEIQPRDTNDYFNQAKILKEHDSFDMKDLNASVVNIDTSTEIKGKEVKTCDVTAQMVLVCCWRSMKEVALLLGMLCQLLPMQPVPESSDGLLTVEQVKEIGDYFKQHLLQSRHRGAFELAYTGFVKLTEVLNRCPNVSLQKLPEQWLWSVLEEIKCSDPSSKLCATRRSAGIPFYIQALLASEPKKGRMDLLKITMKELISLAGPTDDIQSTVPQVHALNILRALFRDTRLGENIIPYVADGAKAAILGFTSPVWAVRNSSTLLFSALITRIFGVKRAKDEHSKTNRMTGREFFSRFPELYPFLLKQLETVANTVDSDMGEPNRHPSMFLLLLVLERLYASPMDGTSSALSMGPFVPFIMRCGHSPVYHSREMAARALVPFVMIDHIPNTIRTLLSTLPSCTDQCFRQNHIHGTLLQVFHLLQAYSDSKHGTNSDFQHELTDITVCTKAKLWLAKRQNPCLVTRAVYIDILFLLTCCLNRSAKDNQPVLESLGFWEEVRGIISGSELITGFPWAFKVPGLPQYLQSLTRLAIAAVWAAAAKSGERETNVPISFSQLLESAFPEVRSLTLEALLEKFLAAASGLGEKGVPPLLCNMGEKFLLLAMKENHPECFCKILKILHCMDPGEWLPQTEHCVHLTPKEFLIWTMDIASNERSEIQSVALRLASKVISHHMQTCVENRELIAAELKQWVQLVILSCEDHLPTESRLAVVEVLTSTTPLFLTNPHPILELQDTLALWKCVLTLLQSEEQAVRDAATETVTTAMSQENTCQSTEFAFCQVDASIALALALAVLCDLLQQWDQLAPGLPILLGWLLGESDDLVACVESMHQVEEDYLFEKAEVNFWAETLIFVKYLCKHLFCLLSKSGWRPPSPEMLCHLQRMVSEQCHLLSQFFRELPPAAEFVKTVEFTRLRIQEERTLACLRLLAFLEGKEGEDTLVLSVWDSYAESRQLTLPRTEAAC

binding result: binds
B1: Human FTSJ1 (FLAG-tagged, co-expressed with THADA) (enzyme)
chain: MGRTSKDKRDVYYRLAKENGWRARSAFKLLQLDKEFQLFQGVTRAVDLCAAPGSWSQVLSQKIGGQGSGHVVAVDLQAMAPLPGVVQIQGDITQLSTAKEIIQHFKGCPADLVVCDGAPDVTGLHDVDEYMQAQLLLAALNIATHVLKPGGCFVAKIFRGRDVTLLYSQLQVFFSSVLCAKPRSSRNSSIEAFAVCQGYDPPEGFIPDLSKPLLDHSYDPDFNQLDGPTRIIVPFVTCGDLSSYDSDRSYPLDLEGGSEYKYTPPTQPPISPPYQEACTLKRKGQLAKEIRPQDCPISRVDTFPQPLAAPQCHTLLAPEMEDNEMSCSP
notes: FTSJ1, human; gene PCR-amplified and cloned into a modified pcDNA3.4 vector; no TEV cleavage step is described in the purification; also called Trm7 (yeast name); not shown: FLAG, N-terminal, kept
